Measured values reported in patent publication US20190359726A1 (CRAGE MEDICAL, published 2019).
Substitutions are numbered along the chain they refer to. Each block holds one binder with its values, some of them ahead of it.

What was measured:
[1] = molecular target: T1, recombinant human BCMA Fc (human, UniProt Q02223 1-54); test: ELISA(scFv), 2 ug/ml coated antigen, 200 nM scFv, HRP anti-Flag tag antibody
T1 construct: not shown: Fc
T1 sequence: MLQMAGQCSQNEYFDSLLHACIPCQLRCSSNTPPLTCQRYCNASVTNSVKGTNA
Description: (§1) 2 ug/ml recombinant human BCMA Fc, mouse BCMA Fc, TACI huFc (R&D, #174TC), BAFF R (R&D, #1162-BR) were coated on immunoplates at 4° C. overnight. The next day, 300 μl/well of 2% MPBS was added for 2 hours, then 200 nM purified antibody (scFv format) was added and incubated at 37° C. for 1 hour, washed three times with PBST (PBS containing 0.05% Tween-20), and washed three times with PBS. And then 1:4000 diluted HRP-labeled anti-Flag tag antibody (sigma, #A8592-1MG) was added, incubated for 1 hour at 37° C., washed three times with PBST (PBS containing 0.05% Tween-20) and washed three times with PBS. 100 ul/well of TMBS substrate was added and developed for 10-15 minutes. The reaction was quenched by adding 50 ul of 2 M sulfuric acid.

TACI huFc (R&D, #174TC) = molecular target: T2, TACI huFc (R&D, #174TC) (human, UniProt O14836 2-166, limits assumed); test: ELISA(scFv), 2 ug/ml coated antigen, HRP anti-Flag tag antibody
T2 construct: Bought reagent; also called human TACI; not shown: human Fc (huFc)
T2 sequence (looked up): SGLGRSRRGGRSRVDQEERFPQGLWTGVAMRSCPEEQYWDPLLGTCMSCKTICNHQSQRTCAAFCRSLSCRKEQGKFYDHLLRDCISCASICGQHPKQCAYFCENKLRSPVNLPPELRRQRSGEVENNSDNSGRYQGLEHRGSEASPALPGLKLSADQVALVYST
Description: as §1

BAFF R (R&D, #1162-BR) = molecular target: T3, BAFF R (R&D, #1162-BR) (human, UniProt Q96RJ3 7-71, limits assumed); test: as above
T3 construct: Bought reagent; also called human BAFF R
T3 sequence (looked up): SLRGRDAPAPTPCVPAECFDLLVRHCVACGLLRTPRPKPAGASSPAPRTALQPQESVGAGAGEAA
Description: as §1

BCMA_huFc [2] = molecular target: BCMA_huFc (human); test: biacore, supernatant of the clone after reinduction; column headed Dissociation constant (Kd, S^-1)
BCMA_huFc [3] = molecular target: BCMA_huFc (human); test: biacore, supernatant of the clone after reinduction
[4] = molecular target: T4, human BCMA, full length, on cells (human, UniProt Q02223 1-184); test: flow cytometry on K562-BCMA cells, scFv_Fc titrated, FITC anti-human Fc
T4 construct: the cell line is named in each row's assay; also called K562-BCMA; K562 stably expressing BCMA
T4 sequence: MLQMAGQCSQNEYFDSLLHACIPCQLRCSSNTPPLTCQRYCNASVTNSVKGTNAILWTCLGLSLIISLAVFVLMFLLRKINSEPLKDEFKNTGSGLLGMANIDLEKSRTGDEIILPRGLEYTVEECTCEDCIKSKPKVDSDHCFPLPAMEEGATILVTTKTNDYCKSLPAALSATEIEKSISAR
Description: K562 and K562 cells (K562-BCMA) stably expressing human BCMA were used and harvested, washed with complete growth medium, and plated into U-bottom microtiter plates at about 1 to 5×10⁵ cells/well. The gradient-diluted scFv_Fc fusion antibody was incubated with K562-BCMA/K562 for 30 minutes on ice, and then incubated with FITC-labeled anti-human Fc as a secondary antibody. After two washing steps, the analysis was performed using a Guava easyCyte™ HT System, and the experimental data was processed using GraphPad Prism to obtain an EC50.

binding result [1]: binds | binding result (TACI huFc (R&D, #174TC)): no binding (tested: 200 nM) | binding result (BAFF R (R&D, #1162-BR)): no binding (tested: 200 nM) | koff (BCMA_huFc [2]): 0.000364 s⁻¹ | fold lower Kd (dissociation rate) than parental clone 23F10 (BCMA_huFc [3]): 10 times
B1: 25C2 scFv (scFv)
scFv: EVQLLESGGGLVQPGGSLRLSCAASGFTFGGNAMSWVRQAPGKGLEWVSAISGNGGSTFYADSVKGRFTISRDNSKNTLYLQMNSLRAEDTAVYYCAKVRPFWGTFDYWGQGTLVTVSSGGGGSGGGGSGGGGSEIVLTQSPGTLSLSPGERATLSCRASQSVSSSYLAWYQQKPGQAPRLLIYGASSRATGIPDRFSGSGSGTDFTLTISRLEPEDFAVYYCQQYFNPPEYTFGQGTKVEIKR
notes: scFv format; also called clone 25C2

binding result [1]: binds | binding result (TACI huFc (R&D, #174TC)): no binding (tested: 200 nM) | binding result (BAFF R (R&D, #1162-BR)): no binding (tested: 200 nM) | koff (BCMA_huFc [2]): 0.000374 s⁻¹ | fold lower Kd (dissociation rate) than parental clone 23F10 (BCMA_huFc [3]): 10 times
B2: 25D2 scFv (scFv)
scFv: B1 scFv with G30R, G31S, N32Y, N54G, S57N
notes: scFv format; also called clone 25D2

EC50 [4]: 2.59 nM
B3: 25C2 (scFv_Fc) (Fc fusion)
chain: EVQLLESGGGLVQPGGSLRLSCAASGFTFGGNAMSWVRQAPGKGLEWVSAISGNGGSTFYADSVKGRFTISRDNSKNTLYLQMNSLRAEDTAVYYCAKVRPFWGTFDYWGQGTLVTVSSGGGGSGGGGSGGGGSEIVLTQSPGTLSLSPGERATLSCRASQSVSSSYLAWYQQKPGQAPRLLIYGASSRATGIPDRFSGSGSGTDFTLTISRLEPEDFAVYYCQQYFNPPEYTFGQGTKVEIK
notes: also called clone 25C2; not shown: human Fc fragment of vector V152

EC50 [4]: 1.89 nM
B4: 25D2 (scFv_Fc) (Fc fusion)
chain: B3 chain with G30R, G31S, N32Y, N54G, S57N
notes: also called clone 25D2; not shown: human Fc fragment of vector V152
